Assay results published in US20090202574A1, “METHODS OF IMMUNE OR HAEMATOLOGICAL ENHANCEMENT, INHIBITING TUMOUR FORMATION OR GROWTH, AND TREATING OR PREVENTING CANCER” (priority 2004, published 2009).

Columns and labels:
Nitrous oxide = test: Nitrite (Griess reaction) at tumour site and in intestine; type: in vivo, mice; conditions: Example 14, P<0.001
Experimental: Cytokine levels in the supernatants of homogenates of the small intestine were determined using a “sandwich” ELISA kit (Endogen, Woburn, Mass.). They were detected within standard curve ranges of 15-375 pg/ml for IL-4, 0-2450 pg/ml for IL-5, 15-1000 pg/ml for TNF-α, 0-3000 pg/ml for IFN-γ, 37-3000 pg/ml for IL-10, 31.3-2000 pg/ml for IL-12, and 31.3-2000 pg/ml for IL-18, respectively. Quantification of nitrite, indicative of NO production, was carried out by the Griess reaction (Sigma, USA). The results are expressed as the mean nitrite concentration (μM)±SD.
The ability of oral iron-saturated lactoferrin to affect the expression of a panel of Th1 and Th2 cytokines was examined in non-tumour-bearing mice, and in tumour-bearing mice fed iron-saturated bovine lactoferrin or the control diet, and treated with either paclitaxel or doxorubicin or a combination of the two drugs.

LLC target cells = test: Anti-tumour cytolytic activity of splenocytes against LLC target cells; type: in vivo, C57BL/6 mice; conditions: Example 18, FIG. 14B (epirubucin experiment), vs controls
Experimental: Splenocytes were tested for their cytolytic activity against tumour target cells. […] Referring to FIGS. 14B, D, and F the percent cytotoxicity is plotted against various effector-to-target cell ratios (E:T ratios); each point represents the mean percent cytotoxicity obtained from 5 mice; and the bar represents 95% confidence intervals.

[1] = Western blot detection of bovine lactoferrin in plasma, tumour and organs of fed mice; type: in vivo; conditions: oral diet
Experimental: Groups of 5 tumour-bearing mice were fed either the control diet or an iron-saturated bovine lactoferrin diet and treated with paclitaxel or doxorubicin, as indicated. Mice were killed on days described in Example 6 and plasma collected. Referring to FIG. 6, plasma proteins (80 μg) were separated on a 10% polyacrylamide SDS-gel, transferred to a membrane, and blotted with an antibody against bovine lactoferrin (upper panel). The relative amounts of bovine lactoferrin in each lane were recorded by densitometry (lower panel). The order of the plasma samples shown in the histograph is the same for the Western blot. A 75 kDa band characteristic of lactoferrin was present in the plasma samples taken from all the different treatment groups fed bovine lactoferrin, whereas this same band was absent from the plasma of mice fed the control diet (FIG. 6).
Tumour homogenates and sections were screened to determine whether lactoferrin in the systemic circulation reached the tumour site. A group of 5 tumour-bearing mice were fed the control diet or an iron-saturated bovine lactoferrin diet, and treated with paclitaxel and doxorubicin. Mice were killed on days described in Example 6, and tissues from the tumour and small intestine were collected. Tumour and intestine homogenates (80 μg of protein) were separated on a 10% polyacrylamide SDS-gel, transferred to a membrane, and Western blotted with an antibody against bovine lactoferrin (upper panel of FIG. 7). The relative amounts of bovine lactoferrin in each lane were recorded by densitometry (lower panel of FIG. 7). The order of the plasma samples shown in the histograph is the same for the Western blot.
A group of 5 tumour-bearing mice were fed an iron-saturated bovine lactoferrin diet. Mice were killed on days described in Example 6, and tissues from multiple organs, including different regions of the intestine, were collected. Organ homogenates (80 μg of protein) were separated on a 10% polyacrylamide SDS-gel, transferred to a membrane, and blotted with either an antibody against bovine lactoferrin (upper panel of FIG. 8A) or an anti-α-tubulin mAb (middle panel of FIG. 8A). Bovine lactoferrin (1 μg) was included as a standard. The relative amounts of bovine lactoferrin in each lane were recorded by densitometry (lower panel of FIG. 8A). The order of the plasma samples shown in the histograph is the same for the Western blot. […] Roughly equal amounts of bovine lactoferrin were retained by the proximal and distal regions of the small intestine, and the large intestine.

EL-4 tumours = test: Apoptotic index of tumour sections (TUNEL, annexin-V-fluos); type: in vivo, C57BL/6 mice; conditions: Example 7; vs mice fed control diet; P<0.001
Experimental: For in situ detection of apoptotic cells, tumors were excised and immediately frozen in dry ice, and stored at −70° C. Frozen serial sections of 6-μm thickness were fixed with paraformaldehyde solution (4% in PBS, pH 7.4), and permeabilized with a solution containing 0.1% Triton X-100 and 0.1% sodium citrate. They were incubated with 20 μl TUNEL reagent (In Situ apoptosis detection kit from Boehringer Mannheim, Germany) for 60 min at 37° C., and examined by fluorescence microscopy. Adjacent sections were counter-stained with haematoxylin to count the total number of cells, or the number of apoptotic cells in ten randomly selected fields (magnification of ×40). The apototic index (AI) was calculated as the number of apoptotic cells×100/total number of nucleated cells. For detection of apoptotic cells in vitro, the numbers of apoptotic and necrotic tumour cells were measured by staining with annexin-V-fluos, TUNEL, and trypan blue, as described previously (Kanwar, et al., 2001).
Sections were prepared from tumours of mice shown in FIGS. 4A and 4B at day 56 for the untreated control group fed the control diet, at day 70 for the groups fed either the control or iron-saturated bovine lactoferrin diet receiving paclitaxel and/or doxorubicin, and 7 days after treatment with drugs for mice fed the control diet. […]

[2] = Blood haematological profile (red and white blood cell counts); type: in vivo, mice; conditions: blood from the heart at autopsy; mean
Experimental: The red and white blood cell counts of mice sacrificed in the preceding examples were recorded. Oral feeding of bovine iron-saturated lactoferrin alone or in combination with administration of paclitaxel or doxorubicin or both increased the mean values of red and white blood cells compared to control mice and compared to mice administered paclitaxel and doxorubicin but not fed lactoferrin, as shown in Table 1.

B1: iron-saturated bovine lactoferrin: Iron-saturated bovine lactoferrin extract (100% saturated) prepared from natural bLf (protein)
chain: APRKNVRWCTISQPEWFKCRRWQWRMKKLGAPSITCVRRAFALECIRAIAEKKADAVTLDGGMVFEAGRDPYKLRPVAAEIYGTKESPQTHYYAVAVVKKGSNFQLDQLQGRKSCHTGLGRSAGWIIPMGILRPYLSWTESLEPLQGAVAKFFSASCVPCIDRQAYPNLCQLCKGEGENQCACSSREPYFGYSGAFKCLQDGAGDVAFVKETTVFENLPEKADRDQYELLCLNNSRAPVDAFKECHLAQVPSHAVVARSVDGKEDLIWKLLSKAQEKFGKNKSRSFQLFGSPPGQRDLLFKDSALGFLRIPSKVDSALYLGSRYLTTLKNLRETAEEVKARYTRVVWCAVGPEEQKKCQQWSQQSGQNVTCATASTTDDCIVLVLKGEADALNLDGGYIYTAGKCGLVPVLAENRKSSKHSSLDCVLRPTEGYLAVAVVKKANEGLTWNSLKDKKSCHTAVDRTAGWNIPMGLIVNQTGSCAFDEFFSQSCAPGADPKSRLCALCAGDDQGLDKCVPNSKEKYYGYTGAFRCLAEDVGDVAFVKNDTVWENTNGESTADWAKNLNREDFRLLCLDGTRKPVTEAQSCHLAVAPNHAVVSRSDRAAHVKQVLLHQQALFGKNGKNCPDKFCLFKSETKNLLFNDNTECLAKLGGRPTYEEYLGTEYVTAIANLKKCSTSPLLEACAFLTR
modifications: iron-saturated; Bovine Lactoferrin
notes: Iron-saturated bovine lactoferrin extract (100% saturated) prepared from natural bLf
Question: Which “increase in nitrous oxide” value (Nitrous oxide) does the source give for B1 here?
Answer: 3 to 4 fold

Question: And the “increase in anti-tumour cytolytic activity” value (LLC target cells)?
Answer: 150%

Question: What about the “state of bovine lactoferrin in plasma” value ([1]; Example 9, Western blot) of the same molecule?
Answer: largely undegraded

Question: What about the “75 kDa band characteristic of lactoferrin in plasma” value ([1]; Example 9, Western blot of plasma) of the same molecule?
Answer: present

Question: And the “75 kDa band and partially degraded products in tumour and small intestine” value ([1]; Example 10, homogenates)?
Answer: present in homogenates of both the tumour and small intestine

Question: What about the “bovine lactoferrin of 75 kDa in organs” value ([1]; Example 11, organ homogenates) of the same molecule?
Answer: present in all regions of the intestine, and in the liver, but it was also present in lesser amounts in spleen, heart, lung, kidney, and brain

Question: And the “increase in the apoptotic index of tumours” value (EL-4 tumours)?
Answer: 1.9 fold

Question: What about the RBCs [2] of the same molecule?
Answer: 8.2 ± 2.5 ×10^6/mm^3

Question: And the WBCs [2]?
Answer: 3.5 ± 1.2 ×10^3/mm^3
